{"source": "paper doi:10.1101/282715", "about": "(bioRxiv, 2018)", "proteins": {"B1": {"name": "mouse TRPC4 (residues a.a. 1-758, excluding a.a. 759-974) (natural protein, UniProt Q9QUQ5 1-758, looked up)", "chain": "MAQFYYKRNVNAPYRDRIPLRIVRAESELSPSEKAYLNAVEKGDYASVKKSLEEAEIYFKININCIDPLGRTALLIAIENENLELIELLLSFNVYVGDALLHAIRKEVVGAVELLLNHKKPSGEKQVPPILLDKQFSEFTPDITPIILAAHTNNYEIIKLLVQKGVSVPRPHEVRCNCVECVSSSDVDSLRHSRSRLNIYKALASPSLIALSSEDPFLTAFQLSWELQELSKVENEFKSEYEELSRQCKQFAKDLLDQTRSSRELEIILNYRDDNSLIEEQSGNDLARLKLAIKYRQKEFVAQPNCQQLLASRWYDEFPGWRRRHWAVKMVTCFIIGLLFPVFSVCYLIAPKSPLGLFIRKPFIKFICHTASYLTFLFLLLLASQHIDRSDLNRQGPPPTIVEWMILPWVLGFIWGEIKQMWDGGLQDYIHDWWNLMDFVMNSLYLATISLKIVAFVKYSALNPRESWDMWHPTLVAEALFAIANIFSSLRLISLFTANSHLGPLQISLGRMLLDILKFLFIYCLVLLAFANGLNQLYFYYEETKGLSCKGIRCEKQNNAFSTLFETLQSLFWSIFGLINLYVTNVKAQHEFTEFVGATMFGTYNVISLVVLLNMLIAMMNNSYQLIADHADIEWKFARTKLWMSYFEEGGTLPTPFNVIPSPKSLWYLVKWIWTHLCKKKMRRKPESFGTIGRRAADNLRRHHQYQEVMRNLVKRYVAAMIREAKTEEGLTEENVKELKQDISSFRFEVLGLLRGSK"}}, "biological_target": "the molecule itself", "experiment": "cryo-EM structure"}
{"protein": "B1", "values": [{"measurement": "stoichiometry N", "result": 4}]}
